Here are results for 16 molecules from patent US20260146077A1 (US Dept. of Health and Human Services, published 2026).

What all share (test): cell-based or functional assay
Experiment [1] concerns the target T1, SARS-CoV-2 spike protein, BA.1 (SARS-CoV-2, UniProt P0DTC2 14-1273).
In experiment [2] the target is T2, SARS-CoV-2 spike protein, B.1.617.2 (SARS-CoV-2, UniProt P0DTC2 14-1273).
The target in experiment [3] is T3, SARS-CoV-2 spike protein, B.1.351 (SARS-CoV-2, UniProt P0DTC2 14-1273).
The target of experiment [4] is T1, SARS-CoV-2 spike protein, BA.1. This is another data set of the same source.
Experiment [5] has as its target SARS-CoV-2 spike protein, BA.2.12.1 (SARS-CoV-2, UniProt P0DTC2 14-1273).
In experiment [6] the target is T1, SARS-CoV-2 spike protein, BA.1. The source holds these as a separate data set.
For experiment [7], the target named is T2, SARS-CoV-2 spike protein, B.1.617.2. The source holds these as a separate data set.
Experiment [8] deals with T3, SARS-CoV-2 spike protein, B.1.351. This is another data set of the same source.

Like-named read-outs stand apart in the source and are kept apart here.

B1: B1-182.1HC/182.1LC_95LTG (antibody, V domains shown)
VH: not shown
VL: EIVLTQSPGTLSLSPGERATLSCRASQSVSSSYLAWYQQKPGQAPRLLIYGASSRATGFPDRFSGSGSGTDFTLTISRLEPEDFAVYYCQQYGNLTGWTFGQGTKVEIR
As to B1, the “neutralization IC50” value came to 0.0206 µg/mL in experiment [1], 0.0068 µg/mL in experiment [2] and 0.0072 µg/mL in experiment [3]. The “neutralization IC80” value in experiment [1] stood at 0.118 µg/mL; in experiment [2], 0.0151 µg/mL; in experiment [3] it was 0.014 µg/mL. Also, the “BA.1 neutralization, fold improvement over B1-182.1” value in experiment [4] is > 9 fold.

B2: B1-182.1HC/182.1LC_96TG (antibody, V domains shown)
VH: not shown
VL: EIVLTQSPGTLSLSPGERATLSCRASQSVSSSYLAWYQQKPGQAPRLLIYGASSRATGFPDRFSGSGSGTDFTLTISRLEPEDFAVYYCQQYGNSTGWTFGQGTKVEIR
Regarding B2, the “neutralization IC50” value came out at 0.0206 µg/mL in experiment [1], 0.004 µg/mL in experiment [2] and 0.0044 µg/mL in experiment [3]. Moreover, the “neutralization IC80” value worked out at 0.0857 µg/mL in experiment [1], 0.0084 µg/mL in experiment [2] and 0.0143 µg/mL in experiment [3]. Further, in experiment [4], the “BA.1 neutralization, fold improvement over B1-182.1” value is > 9 fold.

B3: B1-182.1HC/182.1LC_94GLTG (antibody, V domains shown)
VH: not shown
VL: EIVLTQSPGTLSLSPGERATLSCRASQSVSSSYLAWYQQKPGQAPRLLIYGASSRATGFPDRFSGSGSGTDFTLTISRLEPEDFAVYYCQQYGGLTGWTFGQGTKVEIR
Consider B3, for which the “neutralization IC50” value in experiment [1] came out at 0.0142 µg/mL; in experiment [2], 0.0041 µg/mL; in experiment [3] it was 0.0023 µg/mL. The “neutralization IC80” value in experiment [1] was determined as 0.0623 µg/mL; in experiment [2], 0.0086 µg/mL; in experiment [3] it was 0.0063 µg/mL. Also, the “BA.1 neutralization, fold improvement over B1-182.1” value in experiment [4] was > 13 fold.

B4: A23-58.1HC/58.1LC_F88Y-94GLTG (antibody, V domains shown)
VH: not shown
VL: EIVLTQSPGTLSLSPGERATLSCRASQSVSSSYLAWYQQKPGQAPRLLIYSASSRATGIPDRFSGSGSGTDFTLTISRLEPEDFAVYYCQQYGGLTGWTFGQGTKVEIK
Take B4: the “neutralization IC50” value was 0.0417 µg/mL in experiment [5], 0.0261 µg/mL in experiment [6], 0.0063 µg/mL in experiment [7] and 0.0044 µg/mL in experiment [8]. For the same molecule, the “neutralization IC80” value is 0.0956 µg/mL in experiment [5], 0.0919 µg/mL in experiment [6], 0.0188 µg/mL in experiment [7] and 0.0116 µg/mL in experiment [8]. Moreover, in experiment [4], the “BA.1 neutralization, fold improvement over A19-58.1” value is > 3 fold.

B5: A23-58.1HC/58.1LC_96TG (antibody, V domains shown)
VH: not shown
VL: EIVLTQSPGTLSLSPGERATLSCRASQSVSSSYLAWYQQKPGQAPRLLIYSASSRATGIPDRFSGSGSGTDFTLTISRLEPEDFAVYFCQQYGTSTGWTFGQGTKVEIK
With B5, the figures for the “neutralization IC50” value in experiment [6], in experiment [7] and in experiment [8] were 0.0294 µg/mL, 0.0054 µg/mL and 0.0027 µg/mL, respectively. Besides, the “neutralization IC80” value in experiment [6] was determined as 0.0658 µg/mL; in experiment [7], 0.0131 µg/mL; in experiment [8] it was 0.0066 µg/mL. Also, in experiment [4], the “BA.1 neutralization, fold improvement over A19-58.1” value is > 3 fold.

B6: A23-58.1HC_Y100cA/58.1LC_94GLTG (antibody, V domains shown)
VH: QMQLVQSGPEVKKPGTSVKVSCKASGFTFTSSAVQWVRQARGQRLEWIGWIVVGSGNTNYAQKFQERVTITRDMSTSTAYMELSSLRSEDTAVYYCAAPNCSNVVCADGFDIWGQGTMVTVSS
VL: EIVLTQSPGTLSLSPGERATLSCRASQSVSSSYLAWYQQKPGQAPRLLIYSASSRATGIPDRFSGSGSGTDFTLTISRLEPEDFAVYFCQQYGGLTGWTFGQGTKVEIK
In the case of B6, the “neutralization IC50” value in experiment [5] stood at 0.0193 µg/mL; in experiment [6], 0.0038 µg/mL; in experiment [7], 0.0131 µg/mL; in experiment [8], 0.0023 µg/mL. Further, the “neutralization IC80” value is 0.051 µg/mL in experiment [5], 0.016 µg/mL in experiment [6], 0.0165 µg/mL in experiment [7] and 0.0063 µg/mL in experiment [8]. Besides, the “BA.1 neutralization, fold improvement over A19-58.1” value in experiment [4] was > 25 fold.

B7: A23-58.1HC/58.1LC_F88Y-93VGLTG (antibody, V domains shown)
VH: not shown
VL: EIVLTQSPGTLSLSPGERATLSCRASQSVSSSYLAWYQQKPGQAPRLLIYSASSRATGIPDRFSGSGSGTDFTLTISRLEPEDFAVYYCQQYVGLTGWTFGQGTKVEIK
On to B7, for which the “neutralization IC50” value stood at 0.0099 µg/mL in experiment [5], 0.0093 µg/mL in experiment [6], 0.006 µg/mL in experiment [7] and 0.0023 µg/mL in experiment [8]. Moreover, the “neutralization IC80” value in experiment [5] turned out to be 0.0422 µg/mL; in experiment [6], 0.0426 µg/mL; in experiment [7] it was 0.0162 µg/mL; in experiment [8], 0.0088 µg/mL. Besides, the “BA.1 neutralization, fold improvement over A19-58.1” value in experiment [4] was > 10 fold.

B8: A23-58.1HC_Y100cA/58.1LC_93VGLTG (antibody, V domains shown)
VH: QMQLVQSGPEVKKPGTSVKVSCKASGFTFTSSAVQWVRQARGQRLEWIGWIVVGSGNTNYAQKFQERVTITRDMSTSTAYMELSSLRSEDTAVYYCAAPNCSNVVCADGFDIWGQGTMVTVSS
VL: EIVLTQSPGTLSLSPGERATLSCRASQSVSSSYLAWYQQKPGQAPRLLIYSASSRATGIPDRFSGSGSGTDFTLTISRLEPEDFAVYFCQQYVGLTGWTFGQGTKVEIK
For B8, the “neutralization IC50” value was 0.0242 µg/mL in experiment [5], 0.0155 µg/mL in experiment [6], 0.003 µg/mL in experiment [7] and 0.0011 µg/mL in experiment [8]. The “neutralization IC80” value in experiment [5] was determined as 0.0621 µg/mL; in experiment [6], 0.0419 µg/mL; in experiment [7], 0.0098 µg/mL; in experiment [8] it was 0.0043 µg/mL. Also, the “BA.1 neutralization, fold improvement over A19-58.1” value in experiment [4] is > 6 fold.

B9: B1-182.1HC_F100cS/182.1LC_94GLTG (antibody, V domains shown)
VH: not shown
VL: EIVLTQSPGTLSLSPGERATLSCRASQSVSSSYLAWYQQKPGQAPRLLIYGASSRATGFPDRFSGSGSGTDFTLTISRLEPEDFAVYYCQQYGGLTGWTFGQGTKVEIR
For the molecule B9, the “neutralization IC50” value in experiment [1] amounted to 0.0042 µg/mL; in experiment [2] it was 0.0018 µg/mL; in experiment [3], 0.0022 µg/mL. Also, the “neutralization IC80” value in experiment [1] was determined as 0.0167 µg/mL; in experiment [2], 0.0052 µg/mL; in experiment [3] it was 0.0049 µg/mL. For the same molecule, the “BA.1 neutralization, fold improvement over B1-182.1” value in experiment [4] was > 46 fold.

B10: B1-182.1HC/182.1LC_93VGLTG (antibody, V domains shown)
VH: not shown
VL: EIVLTQSPGTLSLSPGERATLSCRASQSVSSSYLAWYQQKPGQAPRLLIYGASSRATGFPDRFSGSGSGTDFTLTISRLEPEDFAVYYCQQYVGLTGWTFGQGTKVEIR
As for B10, the “neutralization IC50” value was found to be 0.0115 µg/mL in experiment [1], 0.0014 µg/mL in experiment [2] and 0.0009 µg/mL in experiment [3]. The “neutralization IC80” value in experiment [1] stood at 0.0396 µg/mL; in experiment [2], 0.0059 µg/mL; in experiment [3] it was 0.0044 µg/mL. In addition, the “BA.1 neutralization, fold improvement over B1-182.1” value in experiment [4] was > 17 fold.

B11: A23-58.1HC/58.1LC_95LTG (antibody, V domains shown)
VH: not shown
VL: EIVLTQSPGTLSLSPGERATLSCRASQSVSSSYLAWYQQKPGQAPRLLIYSASSRATGIPDRFSGSGSGTDFTLTISRLEPEDFAVYFCQQYGTLTGWTFGQGTKVEIK
As for B11, the “neutralization IC50” value in experiment [6] amounted to 0.0214 µg/mL; in experiment [7] it was 0.0028 µg/mL; in experiment [8], 0.0035 µg/mL. The “neutralization IC80” value came out at 0.0454 µg/mL in experiment [6], 0.0116 µg/mL in experiment [7] and 0.0091 µg/mL in experiment [8]. Further, the “BA.1 neutralization, fold improvement over A19-58.1” value in experiment [4] was determined as 5 fold.

B12: B1-182.1HC_F100cS/182.1LC_93VGLTG (antibody, V domains shown)
VH: not shown
VL: EIVLTQSPGTLSLSPGERATLSCRASQSVSSSYLAWYQQKPGQAPRLLIYGASSRATGFPDRFSGSGSGTDFTLTISRLEPEDFAVYYCQQYVGLTGWTFGQGTKVEIR
On to B12, for which the “neutralization IC80” value in experiment [1] was determined as 0.0909 µg/mL. Besides, in experiment [4], the “BA.1 neutralization, fold improvement over B1-182.1” value is > 9 fold and the “pseudovirus neutralization IC50” value was 0.0228 µg/mL.

B13: A23-58.1HC/58.1LC_96+G (antibody, V domains shown)
VH: not shown
VL: EIVLTQSPGTLSLSPGERATLSCRASQSVSSSYLAWYQQKPGQAPRLLIYSASSRATGIPDRFSGSGSGTDFTLTISRLEPEDFAVYFCQQYGTSPGWTFGQGTKVEIK
Turning to B13, the “neutralization IC50” value is 0.133 µg/mL in experiment [6], 0.0046 µg/mL in experiment [7] and 0.0105 µg/mL in experiment [8]. Also, the “neutralization IC80” value turned out to be 0.917 µg/mL in experiment [6], 0.0112 µg/mL in experiment [7] and 0.0292 µg/mL in experiment [8].

B14: A23-58.1HC/58.1LC_93VGLT (antibody, V domains shown)
VH: not shown
VL: EIVLTQSPGTLSLSPGERATLSCRASQSVSSSYLAWYQQKPGQAPRLLIYSASSRATGIPDRFSGSGSGTDFTLTISRLEPEDFAVYFCQQYVGLTWTFGQGTKVEIK
With B14, the “neutralization IC50” value in experiment [5] was 0.0091 µg/mL; in experiment [6], 0.0048 µg/mL; in experiment [7] it was 0.0009 µg/mL; in experiment [8], 0.001 µg/mL. The “neutralization IC80” value was determined as 0.0431 µg/mL in experiment [5], 0.0187 µg/mL in experiment [6], 0.0024 µg/mL in experiment [7] and 0.0032 µg/mL in experiment [8]. In addition, the “BA.1 neutralization, fold improvement over A19-58.1” value in experiment [4] was > 20 fold.

B15: B1-182.1HC/182.1LC_93VGLT (antibody, V domains shown)
VH: not shown
VL: EIVLTQSPGTLSLSPGERATLSCRASQSVSSSYLAWYQQKPGQAPRLLIYGASSRATGFPDRFSGSGSGTDFTLTISRLEPEDFAVYYCQQYVGLTWTFGQGTKVEIR
Turning to B15, in experiment [1], the “neutralization IC50” value came to 0.297 µg/mL and the “neutralization IC80” value was 3.19 µg/mL.

B16: A23-58.1HC_Y100cA/58.1LC_93VGLT (antibody, V domains shown)
VH: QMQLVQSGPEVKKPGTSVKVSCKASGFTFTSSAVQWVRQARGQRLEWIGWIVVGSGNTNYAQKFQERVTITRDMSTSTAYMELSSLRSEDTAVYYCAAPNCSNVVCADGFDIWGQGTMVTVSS
VL: EIVLTQSPGTLSLSPGERATLSCRASQSVSSSYLAWYQQKPGQAPRLLIYSASSRATGIPDRFSGSGSGTDFTLTISRLEPEDFAVYFCQQYVGLTWTFGQGTKVEIK
In the case of B16, in experiment [5], the “neutralization IC50” value worked out at 0.48 µg/mL and the “neutralization IC80” value is 2.05 µg/mL. Moreover, in experiment [6], the “neutralization IC50” value is 0.306 µg/mL and the “neutralization IC80” value stood at 2.54 µg/mL.
